Changes are numbered by the printed parent chain.
T1: MICA*001 expressed on transfected cells (human)
T1 sequence: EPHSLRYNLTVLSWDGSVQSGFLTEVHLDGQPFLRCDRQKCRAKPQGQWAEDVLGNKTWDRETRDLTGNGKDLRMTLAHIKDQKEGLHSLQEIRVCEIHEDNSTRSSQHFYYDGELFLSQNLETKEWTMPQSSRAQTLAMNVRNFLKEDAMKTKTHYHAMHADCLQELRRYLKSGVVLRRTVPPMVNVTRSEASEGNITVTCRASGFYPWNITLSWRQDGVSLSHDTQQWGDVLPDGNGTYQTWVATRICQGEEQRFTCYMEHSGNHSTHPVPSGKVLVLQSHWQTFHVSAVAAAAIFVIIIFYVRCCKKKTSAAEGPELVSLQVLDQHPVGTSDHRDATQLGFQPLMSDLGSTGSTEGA

B1: CHG1-M-MIA-10F3 (antibody, from a related filing, V domains shown)
VH: QVQLQQSAAELARPGASVKMSCKASGYTFTSYTMHWVKQRPGQGLEWIGYINPSSGYTEYNQKFKDKTTLTVDKSSTTSYMQLSSLTSDNSAVYYCARGGDWDVDWFVYWGQGTLVTVSA
VL: QIVLTQSPAIMSASPGEKVTITCSASSSISYMHWFQQKPGTSPKLWIYSTSKLASGVPARFSGSGSGTSHSLTISRMEAEDAATYYCQHRSTYPFTFGSGTKLEIK
B2: CHG1-M-MIA-18E8 (antibody, from a related filing, V domains shown)
VH: DVQLQESGPDLVNPSQSLSLICTVTGYSITSDYSWHWIRQFPGNKLEWMGNIHYSGRINYNPSLRSRISITRDTSKNQFFLQLISVTTEDTATYYCATRRTFGNFEDYWGQGTTLTVSS
VL: QIVLSQSPATLSVSPGEKVTMTCRSSSSVNYMHWYQQKPGSSPKPWIYATSTLASGVPARFSGSGSGTSYSLTISRVEAEDAATYYCQQWSSNPLTFGAGTKLELK
B3: CHG1-M-MIA-12A10 (antibody, from a related filing, V domains shown)
VH: QVQLQQSGADLVRPGASVRLSCRASGYSFTNYWMNWVKQRPGQGLEWIGMIHPSDSETRLNQKFKDKATLTVDKSSNTAYMQLSSPTSEDSAIYYCARDDFFTMDYWGQGTSVTVSS
VL: DILLTQSPAILSVSPGERVSFSCRASQNIVTSIHWYQQSTNGSPRLLIKYASESISGIPSRFSGSGSGTDFTLTINSVESEDVADYYCQQSNIWPLTFGAGTKLELK
B4: CHG1-M-MIA-14B4 (antibody, from a related filing, V domains shown)
VH: QVQLQQPGAELVRPGASVKLSCKASGYSFTSYWMNWMKQRPGQGLEWIGMIHPSDSETRLNQKFKDKATLTVDKSSSTAYMQLNSPTSEDSAVYYCAREMGPYTLDYWGQGTSVTVSS
VL: B3 VL with E17A, V30D, S39R, T74S, V83I, I93Y
B5: CHG1-M-MIA-6E4 (antibody, from a related filing, V domains shown)
VH: EVQLVESGGALVKPGGSLKLSCAASGFTFSYYAMSWVRQTPEKRLEWVATISRGGNYIYYTDSVKGRFTISRDNAKNTLYLQMTSLRSEDTAMFYCASISDYDGAWLAYWGQGTTLTVSS
VL: DVLMTQTPLSLPVSLGDQASISCRSSQSIIHTNGNTYLEWYLQKPGQSPKLLIYKISNRFSGVPDRFSGSGSGTDFTLKISRVEAEDLGVYYCFQGSHVPWTFGGGTKLEIKR
B6: CHG1-M-MIA-19E9 (antibody, V domains shown)
VH: DVQLQESGPGLVKPSQSLSLTCTVTGYSITSDYAWNWIRQFPGNKLEWMGFVSYSGTTKYNPSLKSRISITRDTSENQFFLQLNSVTSEDTATYYCARGYGFDYWGQGTTLTVSS
VL: EIVLTQSPTTMAASPGEKITITCSATSSISSIYFHWYQQRPGFSPKLLIYRTSNLASGVPARFSGSGSGTSYSLTIGTMEAEDVATYYCQQGTTIPFTFGSGTKLEIK

Target: MICA*004 expressed on C1R transfectant cells (human) (UniProt Q29983)
Sequence (Q29983 other isoform, or with tags, fused parts or gaps limits assumed): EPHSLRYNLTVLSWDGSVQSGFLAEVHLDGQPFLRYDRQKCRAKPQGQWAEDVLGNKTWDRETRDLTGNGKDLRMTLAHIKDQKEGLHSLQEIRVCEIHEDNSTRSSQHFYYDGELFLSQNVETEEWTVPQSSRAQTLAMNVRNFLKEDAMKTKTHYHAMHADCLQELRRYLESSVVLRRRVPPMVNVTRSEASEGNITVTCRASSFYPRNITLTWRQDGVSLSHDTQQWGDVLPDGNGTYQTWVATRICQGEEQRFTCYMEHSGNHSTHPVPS
Assay: flow cytometry, MFI against antibody concentration on C1R-MICA*04 cells

EC50 (read off the curve) | Binder
0.2 µg/mL | B1
0.2 µg/mL | B2
0.3 µg/mL | B3
0.2 µg/mL | B4

Target: T1, MICA*001 expressed on transfected cells (human)
Assay: flow cytometry, MFI against antibody concentration on C1R-MICA*01 cells

EC50 (read off the curve) | Binder
0.6 µg/mL | B5
1 µg/mL | B6

Target: MICA*007 expressed on C1R transfectant cells (human) (UniProt Q29983)
Assay: flow cytometry, MFI against antibody concentration on C1R-MICA*07 cells

EC50 (read off the curve) | Binder
1 µg/mL | B5
0.3 µg/mL | B2
1 µg/mL | B3

Target: MICA*008 expressed on C1R transfectant cells (human) (UniProt Q29983)
Assay: flow cytometry, MFI against antibody concentration on C1R-MICA*08 cells

EC50 (read off the curve) | Binder
0.3 µg/mL | B1
0.3 µg/mL | B2
0.3 µg/mL | B3
0.3 µg/mL | B4

Source: patent US20150191542A1
